Laboratory results published in US6897017.

What was measured:
Assay in all cases: cell-based or functional assay
[1] = biological target: GCN4-DHFR[2:I114A] (murine)
[2] = biological target: WinZip-B1-DHFR[2:I114A] (murine) (UniProt P00375)
[3] = biological target: WinZip-B2 fused to DHFR[2:I114A] (clone of LibB-DHFR[2:I114A]) (murine) (UniProt P00375)

Row | GCN4 zippers among sequences from passage 9 of model competition selection (of 24 sequences) [1] | Frequency of dominant pair at P12, competition selection (I114A) [2] [%] | Selection factor, competition selection (I114A) [2] | frequency of the pair among colonies sequenced at P10 [2] [%] | Frequency of dominant pair at P12, shuffling WinZip-A1 + LibB-DHFR[2:I114A] [3] [%] | Selection factor, shuffling WinZip-A1 + LibB-DHFR[2:I114A] [3] | frequency of the pair among clones sequenced at P10 [3] | Substance
1 | 0 | – | – | – | – | – | – | GCN4-DHFR[1] (from UniProt P03069 253-274; P00375 1-107)
2 | – | 82 | 3.2e+06 | 33 | 67 | 87000 | 3 of 5 clones | WinZip-A1-DHFR[1] (from UniProt P00375 1-107) (designed binder)
